Test results taken from PMC9482650, “Quantitative fragmentomics allow affinity mapping of interactomes” (Nature Communications, 2022).

T1: MPP7, Q5T2T1
T1 sequence (Q5T2T1 134-230, limits assumed, looked up): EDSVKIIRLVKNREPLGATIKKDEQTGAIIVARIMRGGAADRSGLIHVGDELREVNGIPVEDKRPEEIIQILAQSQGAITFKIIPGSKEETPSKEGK

T2: HTRA3, P83110
T2 sequence (P83110 354-453, limits assumed, looked up): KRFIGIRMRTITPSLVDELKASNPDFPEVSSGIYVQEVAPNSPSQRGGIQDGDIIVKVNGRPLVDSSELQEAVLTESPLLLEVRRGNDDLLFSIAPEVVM

T3: MPDZ_10, O75970
T3 sequence (O75970 1624-1722, limits assumed, looked up): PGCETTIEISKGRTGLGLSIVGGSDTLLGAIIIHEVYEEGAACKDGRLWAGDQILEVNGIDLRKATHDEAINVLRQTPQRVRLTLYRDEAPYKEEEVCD

T4: PDZD7_3, Q9H5P4
T4 sequence (Q9H5P4 857-944, limits assumed, looked up): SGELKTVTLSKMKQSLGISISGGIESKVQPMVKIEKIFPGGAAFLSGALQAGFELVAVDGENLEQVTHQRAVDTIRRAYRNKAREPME

T5: SYNJ2BP, P57105
T5 sequence (P57105 8-110, limits assumed, looked up): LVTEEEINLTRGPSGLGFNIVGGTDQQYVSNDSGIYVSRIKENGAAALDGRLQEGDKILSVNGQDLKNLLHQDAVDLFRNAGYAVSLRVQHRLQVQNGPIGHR

T6: GRIP1_7, Q9Y3R0
T6 sequence (Q9Y3R0 999-1096, limits assumed, looked up): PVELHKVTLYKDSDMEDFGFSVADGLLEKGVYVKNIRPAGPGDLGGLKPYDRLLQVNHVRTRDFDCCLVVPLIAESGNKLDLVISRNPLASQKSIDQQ

T7: APBA1_1, Q02410
T7 sequence (Q02410 651-752, limits assumed, looked up): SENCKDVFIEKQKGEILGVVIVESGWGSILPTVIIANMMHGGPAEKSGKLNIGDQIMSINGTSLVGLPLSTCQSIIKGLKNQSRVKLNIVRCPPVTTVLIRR

T8: TX1BP3, O14907
T8 sequence (O14907 10-122, limits assumed, looked up): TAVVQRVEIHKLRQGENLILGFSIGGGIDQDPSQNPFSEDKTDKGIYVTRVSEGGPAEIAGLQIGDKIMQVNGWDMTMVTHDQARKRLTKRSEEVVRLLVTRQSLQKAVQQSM

T9: APBA1_2, Q02410
T9 sequence (Q02410 742-832, limits assumed, looked up): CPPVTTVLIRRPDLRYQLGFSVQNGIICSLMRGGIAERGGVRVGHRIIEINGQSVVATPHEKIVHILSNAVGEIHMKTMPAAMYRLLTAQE

T10: GRIP1_3, Q9Y3R0
T10 sequence (Q9Y3R0 247-346, limits assumed, looked up): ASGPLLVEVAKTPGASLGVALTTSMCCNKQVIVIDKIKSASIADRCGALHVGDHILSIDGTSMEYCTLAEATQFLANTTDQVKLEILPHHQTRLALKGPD

T11: LNX2_3, Q8N448
T11 sequence (Q8N448 463-564, limits assumed, looked up): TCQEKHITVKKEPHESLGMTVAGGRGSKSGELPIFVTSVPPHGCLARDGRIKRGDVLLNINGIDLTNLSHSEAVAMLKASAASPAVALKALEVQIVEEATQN

T12: SHANK1, Q9Y566
T12 sequence (Q9Y566 658-767, limits assumed, looked up): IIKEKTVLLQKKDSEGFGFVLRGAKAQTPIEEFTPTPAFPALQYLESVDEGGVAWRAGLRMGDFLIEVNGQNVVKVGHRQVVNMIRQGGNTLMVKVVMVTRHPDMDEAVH

T13: SNTB1, Q13884
T13 sequence (Q13884 107-205, limits assumed, looked up): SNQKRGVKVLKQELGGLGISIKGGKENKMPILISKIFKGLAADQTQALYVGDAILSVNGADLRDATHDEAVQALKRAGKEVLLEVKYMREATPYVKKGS

B1: GOLT1A, Q6ZVE7 (peptide)
chain: RRLQGTSSMV
B2: ADGRA1, Q86SQ6 (peptide)
chain: TGPWKNETTV

Target: Inadl_1, Q8NI35
Experiment: holdup assay
Parameters: key: below the threshold = too weak to quantify, mostly under pKd 3.1 to 4
Conditions: plain residues with an end cap or a label only (N-terminal biotin on a linker: ado-ado)

Chain of Inadl_1, Q8NI35 (Q8NI35 113-229): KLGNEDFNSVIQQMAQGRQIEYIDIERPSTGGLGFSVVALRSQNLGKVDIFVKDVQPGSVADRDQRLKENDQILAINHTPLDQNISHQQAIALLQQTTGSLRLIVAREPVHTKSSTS

| Binder | pKd |
| --- | --- |
| B1 | below the threshold |
| B2 | below the threshold |

Target: T1, MPP7, Q5T2T1
Experiment: holdup assay
Parameters: key: below the threshold = too weak to quantify, mostly under pKd 3.1 to 4
Conditions: plain residues with an end cap or a label only (N-terminal biotin on a linker: ado-ado)

| Binder | pKd |
| --- | --- |
| B1 | below the threshold |
| B2 | below the threshold |

Target: MAST1, Q9Y2H9
Experiment: holdup assay
Parameters: key: below the threshold = too weak to quantify, mostly under pKd 3.1 to 4
Conditions: plain residues with an end cap or a label only (N-terminal biotin on a linker: ado-ado)

Chain of MAST1, Q9Y2H9 (Q9Y2H9 962-1065): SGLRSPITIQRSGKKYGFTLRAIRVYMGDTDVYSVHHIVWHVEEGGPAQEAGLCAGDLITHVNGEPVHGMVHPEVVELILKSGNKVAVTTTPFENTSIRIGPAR

| Binder | pKd |
| --- | --- |
| B1 | 4.35 |
| B2 | 4.71 |

Target: T2, HTRA3, P83110
Experiment: holdup assay
Parameters: key: below the threshold = too weak to quantify, mostly under pKd 3.1 to 4
Conditions: plain residues with an end cap or a label only (N-terminal biotin on a linker: ado-ado)

| Binder | pKd |
| --- | --- |
| B1 | 3.64 |
| B2 | below the threshold |

Target: T3, MPDZ_10, O75970
Experiment: holdup assay
Parameters: key: below the threshold = too weak to quantify, mostly under pKd 3.1 to 4
Conditions: plain residues with an end cap or a label only (N-terminal biotin on a linker: ado-ado)

| Binder | pKd |
| --- | --- |
| B1 | 3.65 |
| B2 | below the threshold |

Target: T4, PDZD7_3, Q9H5P4
Experiment: holdup assay
Parameters: key: below the threshold = too weak to quantify, mostly under pKd 3.1 to 4
Conditions: plain residues with an end cap or a label only (N-terminal biotin on a linker: ado-ado)

| Binder | pKd |
| --- | --- |
| B1 | below the threshold |
| B2 | 4.9 |

Target: MAGI3_2, Q5TCQ9
Experiment: holdup assay
Parameters: key: below the threshold = too weak to quantify, mostly under pKd 3.1 to 4
Conditions: plain residues with an end cap or a label only (N-terminal biotin on a linker: ado-ado)

Chain of MAGI3_2, Q5TCQ9 (Q5TCQ9 398-503): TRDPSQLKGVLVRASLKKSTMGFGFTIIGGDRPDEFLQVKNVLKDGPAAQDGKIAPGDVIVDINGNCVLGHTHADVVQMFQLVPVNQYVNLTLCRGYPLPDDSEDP

| Binder | pKd |
| --- | --- |
| B1 | 5.02 |
| B2 | 5.29 |

Target: T5, SYNJ2BP, P57105
Experiment: holdup assay
Parameters: key: below the threshold = too weak to quantify, mostly under pKd 3.1 to 4
Conditions: plain residues with an end cap or a label only (N-terminal biotin on a linker: ado-ado)

| Binder | pKd |
| --- | --- |
| B1 | 4.72 |
| B2 | 5.13 |

Target: T6, GRIP1_7, Q9Y3R0
Experiment: holdup assay
Parameters: key: below the threshold = too weak to quantify, mostly under pKd 3.1 to 4
Conditions: plain residues with an end cap or a label only (N-terminal biotin on a linker: ado-ado)

| Binder | pKd |
| --- | --- |
| B1 | below the threshold |
| B2 | below the threshold |

Target: GRID2IP_1, A4D2P6
Experiment: holdup assay
Parameters: key: below the threshold = too weak to quantify, mostly under pKd 3.1 to 4
Conditions: plain residues with an end cap or a label only (N-terminal biotin on a linker: ado-ado)

Chain of GRID2IP_1, A4D2P6 (A4D2P6 1-87): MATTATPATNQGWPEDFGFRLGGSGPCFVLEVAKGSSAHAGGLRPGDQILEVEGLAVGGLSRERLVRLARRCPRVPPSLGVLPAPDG

| Binder | pKd |
| --- | --- |
| B1 | below the threshold |
| B2 | below the threshold |

Target: T7, APBA1_1, Q02410
Experiment: holdup assay
Parameters: key: below the threshold = too weak to quantify, mostly under pKd 3.1 to 4
Conditions: plain residues with an end cap or a label only (N-terminal biotin on a linker: ado-ado)

| Binder | pKd |
| --- | --- |
| B1 | below the threshold |
| B2 | below the threshold |

Target: T8, TX1BP3, O14907
Experiment: holdup assay
Parameters: key: below the threshold = too weak to quantify, mostly under pKd 3.1 to 4
Conditions: plain residues with an end cap or a label only (N-terminal biotin on a linker: ado-ado)

| Binder | pKd |
| --- | --- |
| B1 | 3.9 |
| B2 | 4.47 |

Target: T9, APBA1_2, Q02410
Experiment: holdup assay
Parameters: key: below the threshold = too weak to quantify, mostly under pKd 3.1 to 4
Conditions: plain residues with an end cap or a label only (N-terminal biotin on a linker: ado-ado)

| Binder | pKd |
| --- | --- |
| B1 | 3.71 |
| B2 | below the threshold |

Target: NHERF4_4, Q86UT5
Experiment: holdup assay
Parameters: key: below the threshold = too weak to quantify, mostly under pKd 3.1 to 4
Conditions: plain residues with an end cap or a label only (N-terminal biotin on a linker: ado-ado)

Chain of NHERF4_4, Q86UT5 (Q86UT5 464-550): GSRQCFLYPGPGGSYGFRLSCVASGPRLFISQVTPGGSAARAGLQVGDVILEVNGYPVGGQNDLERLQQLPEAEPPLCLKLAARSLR

| Binder | pKd |
| --- | --- |
| B1 | below the threshold |
| B2 | 3.9 |

Target: T10, GRIP1_3, Q9Y3R0
Experiment: holdup assay
Parameters: key: below the threshold = too weak to quantify, mostly under pKd 3.1 to 4
Conditions: plain residues with an end cap or a label only (N-terminal biotin on a linker: ado-ado)

| Binder | pKd |
| --- | --- |
| B1 | below the threshold |
| B2 | below the threshold |

Target: DLG2_2, Q15700
Experiment: holdup assay
Parameters: key: below the threshold = too weak to quantify, mostly under pKd 3.1 to 4
Conditions: plain residues with an end cap or a label only (N-terminal biotin on a linker: ado-ado)

Chain of DLG2_2, Q15700 (Q15700 189-283): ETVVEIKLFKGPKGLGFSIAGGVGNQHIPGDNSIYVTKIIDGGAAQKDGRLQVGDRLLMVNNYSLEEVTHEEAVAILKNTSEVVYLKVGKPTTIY

| Binder | pKd |
| --- | --- |
| B1 | 4.39 |
| B2 | 5.1 |

Target: T11, LNX2_3, Q8N448
Experiment: holdup assay
Parameters: key: below the threshold = too weak to quantify, mostly under pKd 3.1 to 4
Conditions: plain residues with an end cap or a label only (N-terminal biotin on a linker: ado-ado)

| Binder | pKd |
| --- | --- |
| B1 | below the threshold |
| B2 | below the threshold |

Target: T12, SHANK1, Q9Y566
Experiment: holdup assay
Parameters: key: below the threshold = too weak to quantify, mostly under pKd 3.1 to 4
Conditions: plain residues with an end cap or a label only (N-terminal biotin on a linker: ado-ado)

| Binder | pKd |
| --- | --- |
| B1 | below the threshold |
| B2 | below the threshold |

Target: PARD3_3, Q8TEW0
Experiment: holdup assay
Parameters: key: below the threshold = too weak to quantify, mostly under pKd 3.1 to 4
Conditions: plain residues with an end cap or a label only (N-terminal biotin on a linker: ado-ado)

Chain of PARD3_3, Q8TEW0 (Q8TEW0 582-685): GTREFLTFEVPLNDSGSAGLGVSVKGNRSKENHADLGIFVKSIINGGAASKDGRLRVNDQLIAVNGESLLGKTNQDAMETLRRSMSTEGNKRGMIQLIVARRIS

| Binder | pKd |
| --- | --- |
| B1 | below the threshold |
| B2 | below the threshold |

Target: GRID2IP_2, A4D2P6
Experiment: holdup assay
Parameters: key: below the threshold = too weak to quantify, mostly under pKd 3.1 to 4
Conditions: plain residues with an end cap or a label only (N-terminal biotin on a linker: ado-ado)

Chain of GRID2IP_2, A4D2P6 (A4D2P6 272-370): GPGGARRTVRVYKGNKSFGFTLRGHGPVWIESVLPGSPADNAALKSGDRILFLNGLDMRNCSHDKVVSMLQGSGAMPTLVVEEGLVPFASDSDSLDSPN

| Binder | pKd |
| --- | --- |
| B1 | 3.93 |
| B2 | below the threshold |

Target: GIPC2, Q8TF65
Experiment: holdup assay
Parameters: key: below the threshold = too weak to quantify, mostly under pKd 3.1 to 4
Conditions: plain residues with an end cap or a label only (N-terminal biotin on a linker: ado-ado)

Chain of GIPC2, Q8TF65 (Q8TF65 112-203): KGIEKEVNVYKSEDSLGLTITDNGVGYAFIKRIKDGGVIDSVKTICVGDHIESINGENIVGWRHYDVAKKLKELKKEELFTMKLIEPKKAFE

| Binder | pKd |
| --- | --- |
| B1 | below the threshold |
| B2 | 4.24 |

Target: FRMPD2_1, Q68DX3
Experiment: holdup assay
Parameters: key: below the threshold = too weak to quantify, mostly under pKd 3.1 to 4
Conditions: plain residues with an end cap or a label only (N-terminal biotin on a linker: ado-ado)

Chain of FRMPD2_1, Q68DX3 (Q68DX3 770-861): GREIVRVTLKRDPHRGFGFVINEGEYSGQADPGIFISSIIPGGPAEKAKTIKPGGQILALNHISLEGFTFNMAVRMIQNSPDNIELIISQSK

| Binder | pKd |
| --- | --- |
| B1 | below the threshold |
| B2 | below the threshold |

Target: T13, SNTB1, Q13884
Experiment: holdup assay
Parameters: key: below the threshold = too weak to quantify, mostly under pKd 3.1 to 4
Conditions: plain residues with an end cap or a label only (N-terminal biotin on a linker: ado-ado)

| Binder | pKd |
| --- | --- |
| B1 | below the threshold |
| B2 | 4.67 |
